The text below walks through data of patent US20140271640A1, “FGF-10 Complexes” (Permeon Biologics, Inc., priority 2012, published 2014).

In one series the target is FGFR-1b (Homo sapiens, UniProt P11362). The following applies: cited from earlier work.
The test system of series [1] is HepG2 (hepatoma), Hela cells, SW626 cells (ovarian). Briefly: Cell penetration of p16 fusion proteins, flow cytometry. It counts as cell-based. The following applies: 2 uM, overnight. On the procedure: On the day prior to the assay, HepG2 (hepatoma), Hela cells, and 10^6 SW626 cells (ovarian) were plated in each well of a 6-well plate and incubated in the 37° C. CO2 incubator. The cells were washed once with PBS and then were replenished with 2 mL of growth media containing 2 uM of p16, +36GFP-p16 or FGF10-p16 proteins and were incubated overnight in the 37° C. CO2 incubator. The cells were then washed once with PBS and detached with 0.25% trypsin/EDTA. The cells were fixed for 10 minutes with 1 mL 4% formaldehyde and permeabilized for 5 minutes with 0.5 mL 0.4% saponin. Then 2.5 uL of 1 mg/mL FITC labeled chicken polyclonal anti-myc tag antibody (Abcam #1394) was added to all the cells and incubated at 4° C. in the dark for 2 hours, except for cells treated with +36GFP-p16 (GFP itself was used for detection). The cells were washed twice with ice cold PBS and were analyzed using a BD Accuri™ C6 flow cytometer.
In general terms: In flow cytometry, cells or beads pass a laser one at a time.

In series [2] the test system is SKOV-3 ovarian cancer cells. Kind of series: SKOV-3 cell viability MTS assay with endosome escape agent. It counts as cell-based, human. The following applies: 1 uM protein, 4 hours, with endosome escape agent (strongest at 13.3 nM). As to the method:
SKOV-3 ovarian cancer cells were plated in a 96-well format and grown overnight. Cells were incubated with test articles: a) 1 uM of p16, b) 1 uM of +36GFP-p16, c) 1 uM of FGF10-p16 or d) no treatment in the presence of various concentrations of an endosome escape agent such as PFO (five 3× dilution starting from 40 nM; exemplary endosomal escape agents, such as PFO or PFO-like agents, are disclosed in WO2012/094653) for 4 hours in serum-free medium. One group of cells, called “untreated cells” received no test article treatment and no PFO treatment. After incubation, the media from all cell wells was aspirated and fresh complete medium was added for 3 hours. Cell viability was assessed using an MTS assay. Results are reported as number of viable cells as % relative to the untreated cells.
The CDK4/6 inhibitor PD-0332991 was used as positive control for inhibition of cell proliferation in the p16 deficient SKOV-3 cell line (FIG. 22).
(Tetrazolium dyes change colour on reduction, which living cells bring about.)

The target of a further series is FGFR2b receptor (Homo sapiens, UniProt P21802). The following applies: relative to wild-type FGF10; cited from earlier work.
In the next series the test system is Hela cells. Kind of series: Cell penetrating activity of FGF10 domain, anti-myc flow cytometry. In kind it is cell-based. The following applies: 1 uM, 20 minutes. As to the method:
On the day prior to the assay, 10^6 Hela cells were plated in each well of a 6-well plate and incubated in the 37° C. CO2 incubator overnight. The cells were washed once with PBS and then were replenished with 1 mL of serum-free DEMEM (A) or media containing 1 uM of the FGF10 domain construct FGF10-myc (B, C, and D) and were incubated for 20 minutes in the 37° C. CO2 incubator. The cells were then washed three times with ice-cold PBS. For (C) and (D), cells were treated with 0.25% trypsin/EDTA and washed three times with PBS. The cells in (D) were fixed for 10 minutes with 1 mL 4% formaldehyde and permealized for 5 minutes with 0.2% saponin. Then 10 uL of 0.1 mg/mL FITC labeled chicken polyclonal anti-myc tag antibody (Abcam #1394) was added to all the cells and incubated at 4° C. in the dark for 2 hours. The cells were washed three times with ice cold PBS. Cells in (A) and (B) were detached with 1 mL 10 mM EDTA. Cells were analyzed using a BD Accuri™ C6 flow cytometer.

The conditions of series [3]: mouse, in vivo, iv.
Series [4] can be described thus: Stability of Hisx6-FGF10-Myc following freeze/thaw cycles (A280, analytical SEC). It counts as physicochemical. To be noted: after two (multiple) freeze/thaw cycles. As to the method:
The stability of this cell penetrating domain of FGF10 was evaluated following multiple freeze/thaw cycles. To do this, protein concentration measurements and analytical size exclusion chromatography were carried out comparing protein which had undergone zero, one, or two freeze/thaw cycles. […] The study indicated about 75% stability of this protein after two freeze/thaw cycles.
Purified protein was subjected to the indicated number of freeze/thaw cycles (each freeze/thaw cycle consisted of snap-freezing the protein in liquid nitrogen, placing it at −80° C. for a minimum of two hours, and then thawing it on ice) and analyzed by size exclusion chromatography. After each thaw, the protein was subjected to 20,000×g centrifugation to remove any precipitation. The protein concentration of each sample was measured by A280, considering the extinction coefficient (24540) and molecular weight (19.57 kDa). In each case 40 μL of the protein was applied to a Superdex 75 10/300 GL column (GE Healthcare). The column running buffer was the same as the protein storage buffer (20 mM Hepes, pH 7.5, 0.5 M NaCl).

For series [5] the following is noted: mouse, in vivo.
The nature of series [6]: Microautoradiography analysis (MARG) of cellular distribution in liver and kidney. It counts as in vivo, mice. As to the method: To obtain specific cell-type uptake information in select organs, microautoradiography analysis was performed on selected organs collected at various time points. For microautoradiography analysis (MARG), animals were anesthetized and blood collected, as described above. Tissue samples are trimmed to be approximately 0.5 cm^2, placed into cryosectioning embedding media on a cryosectioning sample holder, and frozen in isopentane that is cooled with liquid nitrogen. Frozen samples were stored in liquid nitrogen until analysis by MARG. For analysis, tissues were cryosectioned at 5 μm under darkroom conditions, and collected onto glass slides that are pre-coated with photographic emulsion (Kodak NTB photographic emulsion). Slides were placed in sealed light-safe slide boxes and allowed to expose the photographic emulsion for 7 days before being developed, fixed and stained with hematoxylin and eosin. All slides were examined for cellular localization using light microscopy.

FGFR2b receptor, sequence (P21802 22-822 isoform P21802-3 limits assumed): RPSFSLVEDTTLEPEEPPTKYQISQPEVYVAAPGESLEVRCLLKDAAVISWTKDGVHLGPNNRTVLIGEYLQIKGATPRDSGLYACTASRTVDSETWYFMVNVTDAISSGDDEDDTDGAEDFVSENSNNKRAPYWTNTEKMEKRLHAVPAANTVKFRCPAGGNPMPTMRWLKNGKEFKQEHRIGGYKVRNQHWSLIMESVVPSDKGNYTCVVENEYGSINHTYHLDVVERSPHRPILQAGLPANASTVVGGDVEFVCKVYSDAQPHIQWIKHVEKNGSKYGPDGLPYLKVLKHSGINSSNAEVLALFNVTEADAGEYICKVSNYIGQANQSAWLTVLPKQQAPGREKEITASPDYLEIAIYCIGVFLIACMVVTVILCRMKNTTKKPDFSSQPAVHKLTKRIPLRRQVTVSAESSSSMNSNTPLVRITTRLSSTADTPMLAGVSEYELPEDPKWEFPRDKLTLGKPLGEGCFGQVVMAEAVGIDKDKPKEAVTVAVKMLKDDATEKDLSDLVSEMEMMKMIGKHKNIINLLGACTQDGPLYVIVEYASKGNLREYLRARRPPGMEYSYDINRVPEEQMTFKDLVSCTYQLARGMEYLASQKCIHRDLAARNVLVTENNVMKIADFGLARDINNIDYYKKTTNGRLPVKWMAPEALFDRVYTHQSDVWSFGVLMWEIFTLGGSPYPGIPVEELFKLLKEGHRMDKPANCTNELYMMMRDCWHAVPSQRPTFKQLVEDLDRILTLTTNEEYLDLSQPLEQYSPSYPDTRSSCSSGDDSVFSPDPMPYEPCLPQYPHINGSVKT
FGFR-1b, sequence (P11362 22-822 isoform P11362-19 limits assumed): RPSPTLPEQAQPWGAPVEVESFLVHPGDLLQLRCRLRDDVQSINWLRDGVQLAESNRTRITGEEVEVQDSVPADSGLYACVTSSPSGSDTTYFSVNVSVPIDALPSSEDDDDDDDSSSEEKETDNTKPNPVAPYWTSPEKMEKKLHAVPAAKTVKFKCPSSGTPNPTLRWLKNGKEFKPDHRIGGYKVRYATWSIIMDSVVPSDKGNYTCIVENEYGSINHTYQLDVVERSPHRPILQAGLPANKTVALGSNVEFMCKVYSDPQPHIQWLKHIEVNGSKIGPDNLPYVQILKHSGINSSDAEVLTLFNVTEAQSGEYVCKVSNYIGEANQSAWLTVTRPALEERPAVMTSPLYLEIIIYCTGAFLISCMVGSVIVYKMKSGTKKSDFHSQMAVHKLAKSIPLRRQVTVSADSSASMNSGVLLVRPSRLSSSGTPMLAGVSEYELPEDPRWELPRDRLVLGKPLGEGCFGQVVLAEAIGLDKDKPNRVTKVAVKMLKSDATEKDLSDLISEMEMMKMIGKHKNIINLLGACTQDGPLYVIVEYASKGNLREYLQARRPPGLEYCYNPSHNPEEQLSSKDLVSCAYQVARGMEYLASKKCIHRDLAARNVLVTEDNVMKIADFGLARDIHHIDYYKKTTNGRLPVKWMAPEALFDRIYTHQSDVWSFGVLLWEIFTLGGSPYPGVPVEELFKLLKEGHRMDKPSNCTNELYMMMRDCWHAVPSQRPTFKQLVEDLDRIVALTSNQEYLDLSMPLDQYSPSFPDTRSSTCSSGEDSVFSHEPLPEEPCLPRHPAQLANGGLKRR

B1: Fibroblast growth factor 10 (FGF-10): native FGF family member, ligand of FGFR-2b (protein, UniProt O15520 38-208, looked up)
Fibroblast growth factor 10: QALGQDMVSPEATNSSSSSFSSPSSAGRHVRSYNHLQGDVRWRKLFSFTKYFLKIEKNGKVSGTKKENCPYSILEITSVEIGVVAVKAINSNYYLAMNKKGKLYGSKEFNNDCKLKERIEENGYNTYASFNWQHNGRQMYVALNGKGAPRRGQKTRRKNTSAHFLPMVVHS
Turning to B1, in the series with FGFR-1b, the “binding affinity to FGFR-1b as % of binding affinity to FGFR-2b” value is “about 10%”.

B2: FGF10-p16: fusion protein of FGF10 domain (SEQ ID NO: 2), (G4S)2 linker and human p16 (protein)
chain: MEQKLISEEDLGSGRHVRSYNHLQGDVRWRKLFSFTKYFLKIEKNGKVSGTKKENCPYSILEITSVEIGVVAVKAINSNYYLAMNKKGKLYGSKEFNNDCKLKERIEENGYNTYASFNWQHNGRQMYVALNGKGAPRRGQKTRRKNTSAHFLPMVVHSGHGGGGSGGGGSMEPAAGSSMEPSADWLATAAARGRVEEVRALLEAGALPNAPNSYGRRPIQVMMMGSARVAELLLLHGAEPNCADPATLTRPVHDAAREGFLDTLVVLHRAGARLDVRDAWGRLPVDLAEELGHRDVARYLRAAAGGTRGSNHARIDAAEGPSDIPDGHGHHHHHH
As for B2, the “treated cells stained positive” value in series [1] (trypsin detached) is on record as roughly 30%. In series [2], the “number of viable cells / cell proliferation” value is “significant reduction in the number of viable cells”.

B3: p16: human p16Ink4A tumor suppressor protein without penetrating polypeptide (protein, listed as Homo sapiens)
chain: MEPAAGSSMEPSADWLATAAARGRVEEVRALLEAGALPNAPNSYGRRPIQVMMMGSARVAELLLLHGAEPNCADPATLTRPVHDAAREGFLDTLVVLHRAGARLDVRDAWGRLPVDLAEELGHRDVARYLRAAAGGTRGSNHARIDAAEGPSDIPD
Consider B3, for which, in series [1], the cell penetration entry is “does not”. Further, the “number of viable cells / cell proliferation” value in series [2] is reported as “failed to block cell proliferation at levels higher than the background toxicity of an endosomal escape agent”.

B4: FGF10 E158K/K195A: FGF-10 variant or fragment having two substitutions E158K/K195A (protein)
chain: GRHVRSYNHLQGDVRWRKLFSFTKYFLKIEKNGKVSGTKKENCPYSILEITSVEIGVVAVKAINSNYYLAMNKKGKLYGSKEFNNDCKLKERIEKNGYNTYASFNWQHNGRQMYVALNGKGAPRRGQKTRRANTSAHFLPMVVHS
For B4, the “decrease in binding to the FGFR2b receptor (factor / fold)” value with FGFR2b receptor was “approximately 4”.

B5: FGF10: Hisx6- and Myc-tagged domain of human FGF10 with the amino acid sequence of SEQ ID NO: 2 (protein, listed as Homo sapiens)
chain: GRHVRSYNHLQGDVRWRKLFSFTKYFLKIEKNGKVSGTKKENCPYSILEITSVEIGVVAVKAINSNYYLAMNKKGKLYGSKEFNNDCKLKERIEENGYNTYASFNWQHNGRQMYVALNGKGAPRRGQKTRRKNTSAHFLPMVVHS
modifications: His6 and Myc tags
As to B5, the “cells with protein present on the cell membrane” value in the series with Hela cells (no trypsin) is on record as 98.8%. Also, in the series on Hela cells (trypsin, fixed and permeabilized), the “cells stained positive after trypsin treatment (internalized protein)” value was “almost all the cells stained positive”. In addition, in series [3], the “travel beyond the injection site” value is on record as “able to travel significantly beyond the area of the injection site”. For the same molecule, the “stability after freeze/thaw cycles” value in series [4] (listed as His6-FGF10-myc) was found to be 75%. Also, in [4] (listed as Hisx6-FGF10-Myc), the “stability after freeze/thaw cycles” value is “about 75%”. For the same molecule, in series [5], the “partitioning between plasma compartment and blood cell compartment” value is given as “favor the plasma compartment over the blood cell compartment”; the “plasma concentration compared with Tat-TK or +36GFP” value was “higher concentrations in plasma 1 hour post-injection than Tat-TK or +36GFP”. The “cellular distribution in kidney (MARG)” value in [6] (kidney) is given as “uniformly distributed throughout the kidney”. For the same molecule, the “cellular distribution in liver (MARG)” value in [6] (liver) is “uniformly distributed throughout the liver tissue including in hepatocytes”.

B6: FGF10 R78A: FGF-10 variant or fragment having one substitution R78A (protein)
chain: GRHVRSYNHLQGDVAWRKLFSFTKYFLKIEKNGKVSGTKKENCPYSILEITSVEIGVVAVKAINSNYYLAMNKKGKLYGSKEFNNDCKLKERIEENGYNTYASFNWQHNGRQMYVALNGKGAPRRGQKTRRKNTSAHFLPMVVHS
Take B6: the “decrease in binding to the FGFR2b receptor (factor / fold)” value with FGFR2b receptor is “approximately 4”.
